± gives the standard deviation.
Experiment: protein stability index of a GFP-peptide fusion (GPS, HEK-293T) (PSI 1-6); higher = more stable
Details: c terminus: a fixed tail appended
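Further: 24-mer peptide tiles fused after GFP, lentivirally expressed, FACS-sorted into six equal bins by GFP/DsRed ratio, decoded by Illumina sequencing, PSI is the read-weighted mean bin number.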

## ITPTKKIELDRTIMPDGTIVTTVT [C2CD2L]
treatment: DMSO
  protein stability index: 2.67 ± 0.25
treatment: MLN4924 1 uM, 8 h
  protein stability index: 2.79 ± 0.22

## PSALFSKIRRGQFCIPEHISPKAR [TRIB1]
treatment: DMSO
  protein stability index: 2.81 ± 0.37
treatment: MLN4924 1 uM, 8 h
  protein stability index: 3.06 ± 0.47

## GASSREEPPEEPEQCPVIDSQAPA [SPDEF]
treatment: DMSO
  protein stability index: 5.69 ± 0.17
treatment: MLN4924 1 uM, 8 h
  protein stability index: 5.52 ± 0.078

## PCLLGSRVFSQGSHAWEVALGGLQ [TRIM35]
treatment: DMSO
  protein stability index: 2.36 ± 0.15
treatment: MLN4924 1 uM, 8 h
  protein stability index: 2.35 ± 0.19

## EGTLGYAIGGTYLGPAFRGLKGRT [SPSB2]
treatment: DMSO
  protein stability index: 3.14 ± 0.1
treatment: MLN4924 1 uM, 8 h
  protein stability index: 3.06 ± 0.32

## AMAMGTPSTTERISTSGQAGTSSH [PXN]
treatment: DMSO
  protein stability index: 4.86 ± 0.31
treatment: MLN4924 1 uM, 8 h
  protein stability index: 4.98 ± 0.1

## VVDKDKRNQCRYCRLKKCFRAGMK [HNF4A]
treatment: DMSO
  protein stability index: 2.51 ± 0.065
treatment: MLN4924 1 uM, 8 h
  protein stability index: 2.75 ± 0.39

## QLLCPWAPLSGPQALMLPPGSFWG [VENTX]
treatment: DMSO
  protein stability index: 2.41 ± 0.62
treatment: MLN4924 1 uM, 8 h
  protein stability index: 1.73 ± 0.35

## DRDMFFKICESLNVPVDDSLVKEL [EFHC1]
treatment: DMSO
  protein stability index: 3.22 ± 0.29
treatment: MLN4924 1 uM, 8 h
  protein stability index: 3.3 ± 0.18

## PPPLTSPSHGSLSHSKAPSGSQMS [NCF4]
treatment: DMSO
  protein stability index: 4.83 ± 0.23
treatment: MLN4924 1 uM, 8 h
  protein stability index: 4.92 ± 0.35

## MVERRGPGRPRTDGENVFTGQSKI [KMT5A]
treatment: DMSO
  protein stability index: 4.19 ± 0.36

## RPQLPQVLQHVRLPLLSPKFLVGT [KLHL20]
treatment: DMSO
  protein stability index: 2.8 ± 0.12
treatment: MLN4924 1 uM, 8 h
  protein stability index: 2.58 ± 0.26

## GQCLDSTDQLEFTVEPRLLVADLL [RTN2]
treatment: DMSO
  protein stability index: 2.91 ± 0.2
treatment: MLN4924 1 uM, 8 h
  protein stability index: 3 ± 0.26

## NGFGLVEDSAQNCFALIPKAPKKD [EFHC1]
treatment: DMSO
  protein stability index: 4.75 ± 0.34
treatment: MLN4924 1 uM, 8 h
  protein stability index: 4.74 ± 0.13

## LCKNCFYLSNARPDNWFCYPCIPN [ZMYND11]
treatment: DMSO
  protein stability index: 2.2 ± 0.29
treatment: MLN4924 1 uM, 8 h
  protein stability index: 2.23 ± 0.053

## GFHKAGSMLPPVNFSIVPYEKKFD [SPATS1]
treatment: DMSO
  protein stability index: 3.64 ± 0.087
treatment: MLN4924 1 uM, 8 h
  protein stability index: 3.54 ± 0.054

## MAVAFLSAQRSKDPNSQVGACIVN [DCTD]
treatment: DMSO
  protein stability index: 2.01 ± 0.16
treatment: MLN4924 1 uM, 8 h
  protein stability index: 2.27 ± 0.25

## LELLSAPELKSLAKTFHLVNPNGQ [FAN1]
treatment: DMSO
  protein stability index: 2.74 ± 0.13
treatment: MLN4924 1 uM, 8 h
  protein stability index: 2.84 ± 0.095

## WGGKAETERGLSRKHIIEGLKASL [KCNAB2]
treatment: DMSO
  protein stability index: 2.26 ± 0.29
treatment: MLN4924 1 uM, 8 h
  protein stability index: 2.02 ± 0.21

## RPQGPQLRQQQHKQNKQVLGYCLL [DNAJC4]
treatment: DMSO
  protein stability index: 2.52 ± 0.22
treatment: MLN4924 1 uM, 8 h
  protein stability index: 2.38 ± 0.23

## YGALSSNLQPPASLQTGNHSNGPT [NOL4L]
treatment: DMSO
  protein stability index: 4.39 ± 0.22
treatment: MLN4924 1 uM, 8 h
  protein stability index: 4.44 ± 0.18

## YEIEIQAEDGGAYLATAKVLITVE [PCDHGA10]
treatment: DMSO
  protein stability index: 2.96 ± 0.39
treatment: MLN4924 1 uM, 8 h
  protein stability index: 2.89 ± 0.91

## PPHICWDETHFGKMGSYYINRTFF [POMT2]
treatment: DMSO
  protein stability index: 2.1 ± 0.44
treatment: MLN4924 1 uM, 8 h
  protein stability index: 2.23 ± 0.4

## YDFDTQYAFVGDYSGQITLLKLEQ [WDFY1]
treatment: DMSO
  protein stability index: 2.19 ± 0.11
treatment: MLN4924 1 uM, 8 h
  protein stability index: 2.33 ± 0.27

## DCLQLIADSETPTIQKGSYTFVPW [TNFSF13B]
treatment: DMSO
  protein stability index: 2.19 ± 0.28
treatment: MLN4924 1 uM, 8 h
  protein stability index: 2.2 ± 0.18

## PEGPEPAAPGKQPGRGHTHAAQGG [ELOA2]
treatment: DMSO
  protein stability index: 5.39 ± 0.27
treatment: MLN4924 1 uM, 8 h
  protein stability index: 5.51 ± 0.16

## MLELRHRGSCPGPREAVSPPHREG [CDS1]
treatment: DMSO
  protein stability index: 4.26 ± 0.29
treatment: MLN4924 1 uM, 8 h
  protein stability index: 4.39 ± 0.29

## AGGIRESKESSKEKKLTVRQDLED [C22orf31]
treatment: DMSO
  protein stability index: 5.56 ± 0.12
treatment: MLN4924 1 uM, 8 h
  protein stability index: 5.48 ± 0.3

## DAASLRRQIIKLNRRLQLLEEENK [MFF]
treatment: DMSO
  protein stability index: 3.35 ± 0.19
treatment: MLN4924 1 uM, 8 h
  protein stability index: 3.68 ± 0.55

## NPPSDFSFQNMNSKRKAETWKKNR [STK38L]
treatment: DMSO
  protein stability index: 4.65 ± 0.45
treatment: MLN4924 1 uM, 8 h
  protein stability index: 4.42 ± 0.22

## VAVDYCASENHGCEHECVNADGSY [MATN2]
treatment: DMSO
  protein stability index: 5.08 ± 0.13
treatment: MLN4924 1 uM, 8 h
  protein stability index: 5.07 ± 0.054

## DYAHGFGNISGEFWLGNEALHSLT [TNXB]
treatment: DMSO
  protein stability index: 2.43 ± 0.73
treatment: MLN4924 1 uM, 8 h
  protein stability index: 2.82 ± 0.57

## PRPVQLDETHPYTVTSVSCCHGNT [NEK8]
treatment: DMSO
  protein stability index: 3.94 ± 0.23
treatment: MLN4924 1 uM, 8 h
  protein stability index: 4.02 ± 0.14

## ADKCVCGPSAPPAPTPPSLSQRVM [TIAF1]
treatment: DMSO
  protein stability index: 4.15 ± 0.24
treatment: MLN4924 1 uM, 8 h
  protein stability index: 4.42 ± 0.35

## QVEGLTVQYLGQAPELLGGAEPGT [ADAMTS4]
treatment: DMSO
  protein stability index: 4.53 ± 0.51
treatment: MLN4924 1 uM, 8 h
  protein stability index: 4.87 ± 0.4

## IICYSITDRRSFHEVREFKQLIYR [RIT1]
treatment: DMSO
  protein stability index: 2.41 ± 0.25
treatment: MLN4924 1 uM, 8 h
  protein stability index: 2.53 ± 0.46

## EKAVANFDRTEWVQIRRLEAAGES [ZC2HC1C]
treatment: DMSO
  protein stability index: 4.49 ± 0.12
treatment: MLN4924 1 uM, 8 h
  protein stability index: 4.48 ± 0.26

## SSESSDAGLCMDSPSPMDPHMAEQ [CDC25B]
treatment: DMSO
  protein stability index: 5.675 ± 0.013
treatment: MLN4924 1 uM, 8 h
  protein stability index: 5.21 ± 0.2

## FIYDMCGSNYANFELDLGKKVLNL [PTPN9]
treatment: DMSO
  protein stability index: 3.01 ± 1.1
treatment: MLN4924 1 uM, 8 h
  protein stability index: 2.22 ± 1.5

## KNKPKKMGHIKPDLIDVDLIRGST [PHTF1]
treatment: DMSO
  protein stability index: 3.8 ± 0.28
treatment: MLN4924 1 uM, 8 h
  protein stability index: 4.04 ± 0.2

## PEPWPGGCTGDEAESRGHSKGWGR [MYCL]
treatment: DMSO
  protein stability index: 4.18 ± 0.12
treatment: MLN4924 1 uM, 8 h
  protein stability index: 4.46 ± 0.56

## EVREARDHKEPKEEINKNISDFGR [EHMT1]
treatment: DMSO
  protein stability index: 5.18 ± 0.26
treatment: MLN4924 1 uM, 8 h
  protein stability index: 5.28 ± 0.17

## EDGEKAAREVKLLLLGAGESGKST [GNAI1]
treatment: DMSO
  protein stability index: 4.78 ± 0.25
treatment: MLN4924 1 uM, 8 h
  protein stability index: 5.28 ± 0.19

## IHTGKKPHVCSLCGKAFYKKYRLT [ZNF649]
treatment: DMSO
  protein stability index: 2.67 ± 0.42
treatment: MLN4924 1 uM, 8 h
  protein stability index: 2.92 ± 0.62

## ESFTMDDMSWTCGNQDYKYRVSDV [VDR]
treatment: DMSO
  protein stability index: 3.08 ± 0.27
treatment: MLN4924 1 uM, 8 h
  protein stability index: 2.94 ± 0.13

Source: the supplement of paper PMC10567573
